Test results from patent publication US20260356958 (published 2026).
Like-named read-outs stand apart in the source and are kept apart here. Each block holds one binder with its values, some of them ahead of it.

Legend:
Assay in all cases: SPR, 25C
hIL-36R-His [1] = target: T1, hIL-36R-His (human)
T1 chain: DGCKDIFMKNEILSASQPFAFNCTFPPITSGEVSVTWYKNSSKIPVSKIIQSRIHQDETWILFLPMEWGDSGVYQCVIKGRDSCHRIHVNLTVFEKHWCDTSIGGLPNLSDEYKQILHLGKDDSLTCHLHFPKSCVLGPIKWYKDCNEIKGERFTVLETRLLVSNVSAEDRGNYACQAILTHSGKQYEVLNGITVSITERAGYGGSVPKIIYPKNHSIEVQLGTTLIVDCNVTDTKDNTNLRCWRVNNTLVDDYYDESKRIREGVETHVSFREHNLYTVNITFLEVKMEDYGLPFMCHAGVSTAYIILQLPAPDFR

hIL-36R-His [2] = target: T1, hIL-36R-His
hIL-36R-His [3] = target: T1, hIL-36R-His
hIL-1R3-His [4] = target: hIL-1R3-His (human)
Chain of hIL-1R3-His (human) (chain, as listed by the source): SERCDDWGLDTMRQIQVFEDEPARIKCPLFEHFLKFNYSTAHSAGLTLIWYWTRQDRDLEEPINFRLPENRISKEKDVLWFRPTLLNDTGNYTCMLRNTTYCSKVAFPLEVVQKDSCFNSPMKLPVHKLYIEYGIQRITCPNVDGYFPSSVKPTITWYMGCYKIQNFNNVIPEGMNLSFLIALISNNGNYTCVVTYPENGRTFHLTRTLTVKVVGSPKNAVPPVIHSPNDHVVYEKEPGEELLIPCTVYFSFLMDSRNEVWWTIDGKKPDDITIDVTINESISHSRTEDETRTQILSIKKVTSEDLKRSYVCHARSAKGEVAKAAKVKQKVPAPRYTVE

hIL-1R3-His [5] = target: hIL-1R3-His (human); remark: listed apart in the source

Kd (hIL-36R-His [1]): 1.29 nM
B1: Common light chain bispecific antibody, IL-36R arm (R72B7VH+L36E9VK) (antibody, V domains shown)
VH: QVQLVQSGAEVKKPGASVKVSCKASGYSFTSSWIHWVKQAPGQGLEWMGEINPGNVRSNYNENFRNKVTMTVDTSISTAYMELSRLRSDDTAVYYCTVINYGEPYFASWGQGTLVTVSS
VL: EIVLTQSPGTLSLSPGERATLSCRASQSVIGSYLAWYQQKPGQAPRLLIYSASKLASGIPDRFSGSGSGTDFTLTISRLEPEDFAVYYCQQDTRYPITFGQGTKVEIK

Kd (hIL-36R-His [2]): 0.669 nM
B2: Crossmab bispecific antibody, IL-36R arm (antibody, V domains shown)
VH: QVQLVQSGAEVKKPGASVKVSCKASGYSFTSSWIHWVRQAPGQGLEWMGEINPGSGRSNYNENFQGRVTMTVDTSISTAYMELSRLRSDDTAVYYCTVVFYGEPYFPFWGQGTLVTVSS
VL: EIVLTQSPGTLSLSPGERATLSCRASQSVIYSYLAWYQQKPGQAPRLLIYSASKRASGIPDRFSGSGSGTDFTLTISRLEPEDFAVYYCQQHAGIPVTFGQGTKVEIK

Kd (hIL-36R-His [3]): 2.91 nM
B3: R49E11VH-h3+L26B11VK (antibody, V domains shown)
VH: QVQLVQSGAEVKKPGASVKVSCKASGYSFTSSWIHWVRQAPGQGLEWMGEINPGSGRSNYNENFQGRVTMTVDTSISTAYMELSRLRSDDTAVYYCTVVFYGEPYFPFWGQGTLVTVSS
VL: EIVLTQSPGTLSLSPGERATLSCRASQSVIYSYLAWYQQKPGQAPRLLIYSASKRASGIPDRFSGSGSGTDFTLTISRLEPEDFAVYYCQQHAGIPVTFGQGTKVEIK

Kd (hIL-1R3-His [4]): 0.761 nM
B4: Crossmab bispecific antibody, IL-1R3 arm (antibody, V domains shown)
VH: EVQLVESGGGLVQPGGSLRLSCAASGFTFSSYAMSWVRQAPGKGLVWVAEISRGGSHTYYPDTVTGRFTISRDNAKNTLYLQMNSLRAEDTAVYYCARSYGNYPFDYWGQGTTVTVSS
VL: EIVLTQSPATLSLSPGERATLSCSASSSVSYMYWYQQKPGQAPRLLIYDTSNLASGIPARFSGSGSGTDFTLTISSLEPEDFAVYYCQQWSSYPLTFGQGTKLEIK

Kd (hIL-1R3-His [5]): 1.44 nM
B5: Common light chain bispecific antibody, IL-1R3 arm (R1B9VH-h1+L36E9VK) (antibody, V domains shown)
VH: EVQLVESGGGLVQPGGSLRLSCAASGFTFSSYAMSWVRQAPGKGLVWVAEISRGGSHTYYPDTVTGRFTISRDNAKNTLYLQMNSLRAEDTAVYYCARSYGNYPFDYWGQGTTVTVSS
VL: EIVLTQSPGTLSLSPGERATLSCRASQSVIGSYLAWYQQKPGQAPRLLIYSASKLASGIPDRFSGSGSGTDFTLTISRLEPEDFAVYYCQQDTRYPITFGQGTKVEIK
